Biological target: Htz1^Flag (S. cerevisiae histone H2A.Z with a Flag epitope tag) (S. cerevisiae) (UniProt Q12692)
Assay: co-IP

Chain of Htz1^Flag (S. cerevisiae histone H2A.Z with a Flag epitope tag) (S. cerevisiae) (Q12692 whole entry): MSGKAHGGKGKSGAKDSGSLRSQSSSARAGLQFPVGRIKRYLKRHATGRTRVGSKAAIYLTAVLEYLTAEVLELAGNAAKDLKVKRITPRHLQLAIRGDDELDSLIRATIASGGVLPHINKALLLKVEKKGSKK
Chain of histone H2A (S. cerevisiae, endogenous) (P04911 whole entry): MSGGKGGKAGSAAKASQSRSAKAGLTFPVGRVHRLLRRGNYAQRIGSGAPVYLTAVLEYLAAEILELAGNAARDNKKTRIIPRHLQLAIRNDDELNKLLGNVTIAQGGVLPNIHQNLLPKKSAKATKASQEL

- estimated molar ratio of H2A and Htz1^Flag in the Flag eluate: 0.49
Substance: histone H2A (S. cerevisiae, endogenous) (from UniProt P04911 1-132) (natural protein)
